Data from the DeepSol protein solubility set.

Test: soluble on expression in E. coli; label from the status in PepcDB or PDB records

Soluble on expression in E. coli, not soluble:
MLQLTLESSFSNTLTVSELNSYVKSTLEEDFLLKRACIKGEISNCTLHKSGHVYFTLKDENSAIDCVMFKPYTKKLDFSPAEGMSVIIKGKVSLYTKTGKYQFYCNEMEKEGLGDLFIKFKKLKEKLESEGLFNEEYKQKIPKYPKNIGIITSPTGAAIRDIIKVTRNRNSSVNLIIYPAVVQGESAAKTVISGISELNKLEKIDLIIIARGGGSMEDLWCFNNESLARAIFESKKPVITGIGHETDFTISDFVSDLRAATPSNAAEIAIYNEYELKSMINNLERMLKNRMKTEISNRSYELDILYSKIEKNSPKSKIEKQKVHVDKIRAQMNHEIKNKISYEVKRFEKSYSLLNAYNPLNVLNKGYSIIQDENEKIISSKSSLNLENDVKITLKDGTVDAHITLKE, MLQSTLLRKSIFYSLAHRRHVASVPLKDVFCDPENPKILQFGDISMAHHRIQNGIVRTDCRKSRCLSKLFDMNIYLKMEVNQDTGSFKERGARYALQNLPEEKKKAGVYAASAGNHALALSLHGKQLGVEVNVVMPKIAPLMKINRCQDLGANILVQGEDIAESREIALRMAHDSNGTYINGYDHYDILAGAGTTGIEILEQIQMPDAILVPVGGGGLVAGVATAVKALSPTTEVIGVVSETCQAIVKSLQAGHPVYTPTRPTLADGLAVPNAGVNAFASMIGKVDRVISVPENDIAVAILRLIENEKVVCEGAGAIGIGAILSGKLNHLKGKTVVSILSGGNIDSTSLGRCIERGLAYDHRVIRLSVIIPDKPGGLSKLTGLVGELSGNVRDLYLERAFMRNDMSSQRVKMVIEVRGEEHEMQLKQKFQEVYDPSNCQFKNNRLPRL, MLRKLWKRPHSTWNKITAVTNVSSEKTITDGQLSEKARKDVDHDVDRTIYDIPLEYCHLRIPKSRTSRSCPDPWRRYGAHVKLCEVGGWMPENRNKNSKVIVVKKGSAPPAAPRCKPLMTVEDYLGVLRK, MLRMDLQTYQKIYSSLHNFGDVFRLSEEYSRPAGMLATILNQKIVKMTRFKHRRVYSREKELFMKWKQGRSILELAEYTYFPPTLMASLILKNCDFSRKSINWLFKHLDCIENRRLRKEVRKALNADYFFSPRAHEMQCRKGEMGEEIVRKWLDDREIAYCTEAEIRAKGDGKTPDFVLSNPIFIEDHMVSWIESKALFGDDFEHKHYAKKQFREYADIFGEGMVVYWYGFLEDLSSEDEGYLIKDYRFFEGYQEQTDELFNYLVYWLEHHHHHH, MLRRCSVLLNDPPLVSGGPVVGLMRDTGTRTTIRPSIMDAQIAQSALEVKMSSLLAREMQAEKMEAEREPPLKRKWVKAPVSQLSTSLSRRDWFRLMSFNMMTDAWGPGHTTPVEAVRVRVPEFTRNPECDDPNACCDYDPSIDKEFPPFLTPEHRRKHLVELLRCYDPDIACLNEVKRTFFNTELWRYVRFLGYGTLYQSSRGAQVRALRKGDNAAAPSNQGKIAEEEDIGNVLLFHKGRFFPLMMPGRDIGQRFHFAHFVGMRDKVTNMTLYVACVQLTAGATAEAADVRLHEARQVLTILDALGRNDADRSHQSHIVCGDLNNQADDEPCVELLRDRFFSTHDLVGGPRWTAWHYRDDARAAAYDTYYTKNVEQAHRSDKAYQAEEEIHRFRRKDAGGYHGVFSKVRLVRDEIAARAHKKQQQQLTTPKTAPEVATPPPADTVAAAPAPSPASAPAPSDTAVRVDQLALLKESRKAKGITYNTQDFIFYDPSTLALHQVLDVPEDEEVNEAQLFPNHKLPSHHLPLFIDISWIDSFPDVAARTLKE, MLRVRLTKMQSDELDAIIGELQAQMPEASVTTSSIARYALEKYVSDHIAKRDGTKIFIEINTADATEEEIKNLYDLLSKLFDEAKENYSPMVHYMVGEILEPLMMKMARLMKLKKPEVKAGE, MLSAESLKQIDIELAKYPADQRRSAIMGALRIAQTEKGWLAPETIAFVADYIGITPAQAYEVATFYNMYDLEPVGKYKLTVCTNLPCALRGGMATGEYLKQKLGIGYGETTPDGKFTLVEGECMGACGDAPVMLVNNHSMCSFMTEEAIEKKLAELE

Soluble on expression in E. coli, soluble:
MLQVCCYTSEGYKYAVGIDLVRFFDTVNHSFLLRILSRTINDGRVISLIHKYLTSGVMIGKHYEPSIEGTPQGAPLSPLLSNILLNELDKELERRGHCFVRYADDSMILCKSKRSAERVCSSITDFSFYFTKGKCRLCVHKTTKEKFKRKVKSLTRRSNSMGYAQRKEILWQTFRGWIGYFKYADMRSLLIPLDQWYRRHLRMCIWKCWKRVKTRFSNLQKCGIPKGKALEHHHHHH
